Drawing on paper PMC2140169, this text covers percent of added protein bound and fold reduction in binding against the domain containing FXFG repeats (2503-2893) for one substance.

The target in experiment [1] is GST-Nup358 fragment 2500-C (amino acid 2500 to the COOH terminus) (UniProt P49792). Kind of experiment: solid-phase binding assay in microtiter wells.
In experiment [2] the target is GST-Nup358 fragment amino acids 2550-2837 (region between Ran-binding domains three and four, without FXFG repeats) (UniProt P49792). The experiment is described as follows: solid-phase binding assay in microtiter wells.

In experiment [1], “SUMO-1-modified NΔ419 (RanGAP1 amino acids 420-589) (from UniProt P46061 420-589) (complex)” registered a percent of added protein bound of 20%. The substance also returned a fold reduction in binding against the domain containing FXFG repeats (2503-2893) in experiment [2] of 5 fold.
